Measurements from IntAct's records for PubMed 29125462.

B1: RILP-like protein 2 (Homo sapiens), Q969X0 (parent)
chain: MEEPPVREEEEEEGEEDEERDEVGPEGALGKSPFQLTAEDVYDISYLLGRELMALGSDPRVTQLQFKVVRVLEMLEALVNEGSLALEELKMERDHLRKEVEGLRRQSPPASGEVNLGPNKMVVDLTDPNRPRFTLQELRDVLQERNKLKSQLLVVQEELQCYKSGLIPPREGPGGRREKDAVVTSAKNAGRNKEEKTIIKKLFFFRSGKQT
B2: RILP-like protein 1 (Homo sapiens), Q5EBL4 (parent)
chain: MEEERGSALAAESALEKNVAELTVMDVYDIASLVGHEFERVIDQHGCEAIARLMPKVVRVLEILEVLVSRHHVAPELDELRLELDRLRLERMDRIEKERKHQKELELVEDVWRGEAQDLLSQIAQLQEENKQLMTNLSHKDVNFSEEEFQKHEGMSERERQVMKKLKEVVDKQRDEIRAKDRELGLKNEDVEALQQQQTRLMKINHDLRHRVTVVEAQGKALIEQKVELEADLQTKEQEMGSLRAELGKLRERLQGEHSQNGEEEPETEPVGEESISDAEKVAMDLKDPNRPRFTLQELRDVLHERNELKSKVFLLQEELAYYKSEEMEEENRIPQPPPIAHPRTSPQPESGIKRLFSFFSRDKKRLANTQRNVHIQESFGQWANTHRDDGYTEQGQEALQHL

Variants of: B1
Conditions: with rab8a_human RAB8A

Effect of a mutation on the interaction, disrupting interaction strength:
MEEPPVREEEEEEGEEDEERDEVGPEGALGKSPFQLTAEDVYDISYLLGRELMALGSDPRVTQLQFKVVRVLEMLEALVNEGSLALEELKMERDHLRKEVEGLRRQSPPASGEVNLGPNKMVVDLTDPNRPEFTLQELRDVLQERNKLKSQLLVVQEELQCYKSGLIPPREGPGGRREKDAVVTSAKNAGRNKEEKTIIKKLFFFRSGKQT [R132E]
MEEPPVREEEEEEGEEDEERDEVGPEGALGKSPFQLTAEDVYDISYLLGRELMALGSDPRVTQLQFKVVRVLEMLEALVNEGSLALEELKMERDHLRKEVEGLRRQSPPASGEVNLGPNKMVVDLTDPNEPRFTLQELRDVLQERNKLKSQLLVVQEELQCYKSGLIPPREGPGGRREKDAVVTSAKNAGRNKEEKTIIKKLFFFRSGKQT [R130E]
MEEPPVREEEEEEGEEDEERDEVGPEGALGKSPFQLTAEDVYDISYLLGRELMALGSDPRVTQLQFKVVRVLEMLEALVNEGSLALEELKMERDHLRKEVEGLRRQSPPASGEVNLGPNKMVVDLTDPNRPRFTLQELRDVLQERNKLESQLLVVQEELQCYKSGLIPPREGPGGRREKDAVVTSAKNAGRNKEEKTIIKKLFFFRSGKQT [K149E]

Variants of: B2
Conditions: with rab8a_human RAB8A

Effect of a mutation on the interaction, disrupting interaction strength:
MEEERGSALAAESALEKNVAELTVMDVYDIASLVGHEFERVIDQHGCEAIARLMPKVVRVLEILEVLVSRHHVAPELDELRLELDRLRLERMDRIEKERKHQKELELVEDVWRGEAQDLLSQIAQLQEENKQLMTNLSHKDVNFSEEEFQKHEGMSERERQVMKKLKEVVDKQRDEIRAKDRELGLKNEDVEALQQQQTRLMKINHDLRHRVTVVEAQGKALIEQKVELEADLQTKEQEMGSLRAELGKLRERLQGEHSQNGEEEPETEPVGEESISDAEKVAMDLKDPNRPRFTLQELRDVLHERNELESKVFLLQEELAYYKSEEMEEENRIPQPPPIAHPRTSPQPESGIKRLFSFFSRDKKRLANTQRNVHIQESFGQWANTHRDDGYTEQGQEALQHL [K310E]
MEEERGSALAAESALEKNVAELTVMDVYDIASLVGHEFERVIDQHGCEAIARLMPKVVRVLEILEVLVSRHHVAPELDELRLELDRLRLERMDRIEKERKHQKELELVEDVWRGEAQDLLSQIAQLQEENKQLMTNLSHKDVNFSEEEFQKHEGMSERERQVMKKLKEVVDKQRDEIRAKDRELGLKNEDVEALQQQQTRLMKINHDLRHRVTVVEAQGKALIEQKVELEADLQTKEQEMGSLRAELGKLRERLQGEHSQNGEEEPETEPVGEESISDAEKVAMDLKDPNRPEFTLQELRDVLHERNELKSKVFLLQEELAYYKSEEMEEENRIPQPPPIAHPRTSPQPESGIKRLFSFFSRDKKRLANTQRNVHIQESFGQWANTHRDDGYTEQGQEALQHL [R293E]
MEEERGSALAAESALEKNVAELTVMDVYDIASLVGHEFERVIDQHGCEAIARLMPKVVRVLEILEVLVSRHHVAPELDELRLELDRLRLERMDRIEKERKHQKELELVEDVWRGEAQDLLSQIAQLQEENKQLMTNLSHKDVNFSEEEFQKHEGMSERERQVMKKLKEVVDKQRDEIRAKDRELGLKNEDVEALQQQQTRLMKINHDLRHRVTVVEAQGKALIEQKVELEADLQTKEQEMGSLRAELGKLRERLQGEHSQNGEEEPETEPVGEESISDAEKVAMDLKDPNEPRFTLQELRDVLHERNELKSKVFLLQEELAYYKSEEMEEENRIPQPPPIAHPRTSPQPESGIKRLFSFFSRDKKRLANTQRNVHIQESFGQWANTHRDDGYTEQGQEALQHL [R291E]
